For the data set, the target named is p48-VP16 TAD (Homo sapiens / Herpes simplex virus) (UniProt Q00978). The experiment in a line: cell_activity. To be noted: 293T ISRE-Luc reporter.
UniProt Q00978, sequence (Q00978 1-393, tags or fused parts left off): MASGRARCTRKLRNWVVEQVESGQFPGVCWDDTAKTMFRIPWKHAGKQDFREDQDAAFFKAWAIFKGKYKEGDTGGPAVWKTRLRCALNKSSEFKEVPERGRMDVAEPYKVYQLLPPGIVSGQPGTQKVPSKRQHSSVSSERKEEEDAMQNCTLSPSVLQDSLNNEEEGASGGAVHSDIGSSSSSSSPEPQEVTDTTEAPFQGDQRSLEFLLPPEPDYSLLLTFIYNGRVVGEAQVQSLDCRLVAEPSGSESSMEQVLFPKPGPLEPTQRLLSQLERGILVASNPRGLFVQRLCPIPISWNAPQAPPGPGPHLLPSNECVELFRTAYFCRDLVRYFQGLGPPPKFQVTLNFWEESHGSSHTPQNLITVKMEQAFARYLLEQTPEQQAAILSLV

In turn, 5x ISG54 ISRE luciferase reporter showed an activity (fold relative to p48-S2C) of 3.
